Measurements taken from patent US6602687B1, “DNA encoding human ciliary neurotrophic factor and method for producing the protein encoded thereby” (Regeneron Pharmaceuticals, Inc., priority 1989, dated 2003).

Columns and labels:
[1] = tested on: dorsal root ganglia and/or dissociated ciliary neurons; assay: Biological activity of modified and truncated CNTF proteins (rapid bacterial extracts); format: cell-based, chick; conditions: soluble protein extracted from induced bacteria hosting each plasmid; compared with full length parental protein
Protocol: Samples for gel electrophoresis were prepared by resuspending cell pellets from 0.5 ml culture OD590=2 in 0.16 ml lysis buffer (100 mM TrisHCl, 10% glycerol, 4% sodium dodecyl sulfate, 1 mM dithiothreitol, 0.5 mg/ml bromophenol blue, pH 6.8) and boiling for 5 minutes.
(§1) Biological activity of recombinant CNTF was assayed on explants of chick embryo dorsal root ganglia (DRG) and dissociated cultures of ciliary ganglion (CG) neurons as described in Lindsay and Rohrer (1985, Devel. Biol 112:30-48). Briefly, DRG were dissected from chick embryos of 10 days incubation (E10) and 5-6 ganglia were explanted in 1 ml of a collagen gel matrix in 35 mm tissue culture dishes. After the gel had set, 1 ml of tissue culture growth medium F14 (Imperial Labs., U.K.) supplemented with 5% heat-inactivated horse serum (GIBCO) was added before adding human CNTF (1-20 l) to a final concentration of 100 pg to 100 ng/ml. CG were dissected from E8 chick embryos and incubated for 30 min in 0.25% trypsin (Worthington) in calcium- and magnesium-free phosphate buffered saline. The ganglia were then washed three times in F14 medium containing 5% horse serum before being dissociated to a single cell suspension by trituration through the bore of a Pasteur pipette. Enrichment for CG neurons was achieved by plating the cell suspension for 3.5 hr in a 60 mm dish, during which non-neuronal cells (fibroblasts and Schwann cells) attached firmly to the plastic while phase-bright neurons remained in suspension. The purified neurons were plated on polyornithine-laminin-coated 35 mm culture dishes at 8,000-10,000 neurons/dish. In explant cultures CNTF activity was determined by assessing the extent of fiber outgrowth in treated cultures compared to controls. Fiber outgrowth was scored on a scale of 0 to 5+, by comparing cultures to photographs of a dose-response of explanted DRG and NGF. In dissociated CG neuron cultures, CNTF activity was determined by counting at 48 hr the percentage of process-bearing neurons in control and CNTF-treated cultures. In all cases results were derived from triplicate cultures.
Biological activity was assayed on dorsal root ganglia and/or dissociated ciliary neurons was determined as described in section 12.1.6. Soluble protein was extracted from induced bacteria hosting each plasmid by the “rapid” protein extraction method described in section 12.1.3.

[2] = tested on: GABAergic neurons (hippocampal cultures); assay: Effect of other neurotrophic factors on GABAergic hippocampal neurons in culture; format: cell-based, rat
Protocol: Hippocampi were dissected from E18-19 rat embryos of Sprague-Dawley rats, and collected in F10 medium. The tissues were minced, rinsed twice with F10 medium (Gibco) and trypsinized with 0.25% trypsin (Gibco) for 20 minutes at 37° C. Trypsin was inactivated by the addition of a serum-containing medium composed of minimal essential medium (MEM) supplemented with fetal calf serum (FCS, 10%), glutamine (2 mM), penicillin (25 U/ml) and streptomycin (25 ug/ml). Dissociated cells obtained by gentle trituration were collected and centrifuged at low speed (500 rpm) for 30 seconds. The centrifugation was repeated twice, and the cell pellets were then resuspended in serum-containing medium. The cells were then plated onto 6 mm wells or 35 mm dishes that were coated with polyornithine (10 ug/ml) and laminin (10 ug/ml). In most of the experiments, the cells were plated at a low density of approximately 71,000 cells/cm^2. Five to six hours following the plating of cells, medium was changed to a serum-free medium containing 1% N3 and penicillin-streptomycin (25 units/ml and 25 ug/ml, respectively), at which time CNTF was added. Medium was changed every three to four days, with re-addition of the factor. […]

[3] = tested on: chick embryonic spinal motorneurons; assay: Survival of chick embryonic spinal motorneurons in culture; format: cell-based; parameters: key to Survival: −: not significantly different from control (survival: 8.3 ± 3.8%, mean ± SD, n = 18); ±: about 15-20% (statistically significant from each blank control, p < 0.01); + +: about 35-55%; + ++: about 55-75%
Protocol: Motorneuron columns were dissected under a stereomicroscope from the lumbar part of the spinal cord of chick embryos on the 6th day of embryonic development and stored in cold calcium and magnesium-free Hanks balanced salt solution supplemented with glucose (4 g/l) (HBSS). The tissues were washed with HBSS and treated with 0.03% trypsin in HBSS at 37° C. for 20 min with gentle shaking, rinsed with cold HBSS and triturated mildly in 3 steps of 8-passage agitation in 1 ml of cold 0.1% soybean trypsin inhibitor (Sigma) in HBSS through a fire-polished siliconized Pasteur pipette. Each supernatant cell suspension was filtered through 50 μm-Nylon mesh, pooled and layered onto 4 ml of cold 6.8% metrizamide (Fluka) in HBSS-25 mM HEPES (pH7.4) in a 12 ml-siliconized conical glass tube. The tube was centrifuged at 400 g for 15 min at 4° C. and the intermediate layer (0.5 ml) was collected into another siliconized tube containing 6.5 ml of cold culture medium (a mixture of glucose (4 g/l)-supplemented Leibovitz's L-15 medium (Gibco), 0.15 M sodium bicarbonate, heat-inactivated and filtered horse serum and penicillin G (10^5 units/ml) at the ratio of 75:15:10:0.1, freshly prepared and buffered with 5% CO2.) After centrifugation at 100×g for 7 min at 4° C., the supernatant was removed and the cells were gently resuspended in culture medium and plated in Greiner 4-well culture dishes (well diameter, 10 mm; C. A. Greiner und Sohne GmbH, Nurtingen, West Germany) at 1000-2000 cells/well. The dishes had been precoated with poly-DL-ornithine (Sigma, 0.5 mg in 0.15 M sodium borate buffer (pH 8.3) overnight at 4° C., rinsed twice with phosphate-buffered saline (PBS) and subsequently coated with laminin (Gibco; 10 μg/ml in the serum-depleted culture medium) and placed in a 5% CO2-incubator until cell plating (5-6 hrs). Cells were incubated at 37° C. in a humidified 5% CO2- and 95% air-incubator. Samples were added one hr after plating and the culture medium changed after 24 hrs and 72 hrs. The initial cell numbers were counted 3 hrs after plating.
In some experiments motor neurons were retrogradely labeled with a fluorescent dye in vivo before cell preparation (U. Dohrman et al., 1986, Dev. Biol. 118:209-221) to identify the motor neuron cell population. A small hole was made in the shell of eggs which had been incubated for 5 days. Small pieces of rhodamine isothiocyanate crystals (Sigma) were inserted at two or three places into each hind limb thigh and the egg hole was sealed with a cellophane tape. The eggs were incubated for another 24 hrs. Some of the operated embryos were then processed for frozen sections after formaldehyde fixation. […] The other embryos were used for cell preparation using the method described above (18.1.1). After 5 hrs in culture cells were rinsed with warm HBSS, fixed with 4% formaldehyde in PBS at room temperature for 20 min, rinsed with PBS and then mounted in glycerol-PBS (1:1) with glass coverslips. Of the total cells approximately 83% were labeled and identified as motorneurons (FIG. 42.) Most of these labeled motorneurons were large cells and the rest were intermediate-size cells. No small cells were labeled. On the other hand, in experiments in which cells were not labeled with a fluorescent dye about 70% of the total cells were large phase-bright cells with round cell somas, about 20% were intermediate-size neurons (most of them may be motorneurons) and about 10% were small immature neurons (they have neuron-like processes with growth cones but have phase-dark semi-flat cell somas). Non-neuronal cells were either not present or accounted for less than 2%. Taken together, one may conclude that at least 83% of the cells are motorneurons while the remainder consists of non-labeled motorneurons, a small number of unidentified intermediate-size neurons and about 10% immature small neurons. […]

[4] = tested on: E10 rat ciliary ganglion neurons; assay: Survival and neurite outgrowth of ciliary ganglion neurons with E. coli protein extract; format: cell-based
Protocol: (§2) In addition, protein extracts were prepared from the same cells lysed by treatment with lysozyme followed by three cycles of freezing and thawing. […] No such activity could be detected in control extracts from the same host cells carrying the plasmid vector without the rCNTF gene.

[5] = tested on: E8 dorsal root ganglion neurons; assay: Survival and neurite outgrowth of dorsal root ganglion neurons / DRG assay with E. coli protein extracts; format: cell-based; conditions: protein extract of E. coli W3110iqF-/rCNTF-C-1; after 24 and 48 hours in vitro
Protocol: as §2
Human CNTF sequence, engineered to lack intron sequences, has been inserted into the pCP93 vector and used to transform competent E. coli.

[6] = tested on: E8 chick ciliary ganglion neurons; assay: Survival of dissociated E8 chick ciliary ganglion neurons; format: cell-based; conditions: dissociated, neuron-enriched E8 chick ciliary ganglion cultures
From the text: Ciliary neurotrophic factor activity may be evaluated using any CNTF-sensitive in vivo or in vitro system known in the art. For example, and not by way of limitation, in vitro systems have been developed which measure CNTF activity by quantitating 24-hour survival of embryonic (E8) chick ciliary ganglion (CG) neurons in monolayer cultures.
For example, ciliary ganglia may be collected from E8 chick embryos, dissociated (yielding approximately 20,000 cells per ganglion) and then diluted in HEBM medium containing 20 percent horse serum as described in Varon et al. (1979, Brain Res. 173:29-45). About fifty microliters of cell suspension containing neurons (2,000 cells) may then be seeded into microliter dishes and putative CNTF activity may be added. Culture plates may then be maintained at 37° C. in 5% CO2 for 24 hours, after which the cultures may be fixed by the addition of 200 μl 2 per cent glutaraldehyde in HEBM medium, and the number of surviving neurons may be determined visually by direct count under phase contrast microscopy.
Chick embryo ciliary ganglion cultures were created and maintained according to the method set forth in (Hughes et al., 1988, Nature 335 : 70-73).
as §1

B1: pRPN59: hCNTF interrupted after the 185th codon, followed by 10 additional unrelated amino acids (protein, UniProt P26441 1-185, looked up, fragment)
chain: MAFTEHSPLTPHRRDLCSRSIWLARKIRSDLTALTESYVKHQGLNKNINLDSADGMPVASTDQWSELTEAERLQENLQAYRTFHVLLARLLEDQQVHFTPTEGDFHQAIHTLLLQVAAFAYQIEELMILLEYKIPRNEADGMPINVGDGGLFEKKLWGLKVLQELSQWTVRSIHDLRFISSHQTG
modifications: plus 10 unrelated C-terminal residues
biological activity [1]: as active as the full length protein

B2: pRPN109: hCNTF with serine in place of cysteine at amino acid 17, encoded in plasmid pRPN109 (protein, UniProt P26441 1-200, looked up, variant C17S)
Ciliary neurotrophic factor: MAFTEHSPLTPHRRDLSSRSIWLARKIRSDLTALTESYVKHQGLNKNINLDSADGMPVASTDQWSELTEAERLQENLQAYRTFHVLLARLLEDQQVHFTPTEGDFHQAIHTLLLQVAAFAYQIEELMILLEYKIPRNEADGMPINVGDGGLFEKKLWGLKVLQELSQWTVRSIHDLRFISSHQTGIPARGSHYIANNKKM
biological activity [1]: as active as the full length protein

B3: BDNF: brain derived neurotrophic factor (porcine in Table VI) (protein, UniProt P14082 134-252, looked up)
Neurotrophic factor BDNF: HSDPARRGELSVCDSISEWVTAADKKTAVDMSGGTVTVLEKVPVSKGQLKQYFYETKCNPMGYTKEGCRGIDKRHWNSQCRTTQSYVRALTMDSKKRIGWRFIRIDTSCVCTLTIKRGR
modifications: Neurotrophic factor BDNF
effect on / survival of GABAergic neurons [2]: does not seem to promote the survival | Survival ([3]; after 3 days in culture, one concentration per molecule, Table VI, CNTF rat, rec.): − | survival effect on motoneurons ([3]; supramaximal concentrations, NT-3 produced by transfected Cos-cells): no discernable effect

B4: pRPN112: hCNTF interrupted after the 145th codon plus one leucine; lacks 55 carboxyl-terminal residues (protein, UniProt P26441 1-145, looked up, fragment)
chain: MAFTEHSPLTPHRRDLCSRSIWLARKIRSDLTALTESYVKHQGLNKNINLDSADGMPVASTDQWSELTEAERLQENLQAYRTFHVLLARLLEDQQVHFTPTEGDFHQAIHTLLLQVAAFAYQIEELMILLEYKIPRNEADGMPIN
modifications: plus one C-terminal leucine
notes: hCNTF interrupted after the 145th codon plus one leucine; lacks 55 carboxyl-terminal residues
biological activity [1]: inactive

B5: pRPN65: rCNTF terminated immediately after the 165th codon (protein, UniProt P20294 1-165, looked up, fragment)
chain: MAFAEQTPLTLHRRDLCSRSIWLARKIRSDLTALMESYVKHQGLNKNINLDSVDGVPVASTDRWSEMTEAERLQENLQAYRTFQGMLTKLLEDQRVHFTPTEGDFHQAIHTLMLQVSAFAYQLEELMVLLEQKIPENEADGMPATVGDGGLFEKKLWGLKVLQEL
biological activity [1]: inactivated

B6: recombinant rat CNTF: rat ciliary neurotrophic factor expressed in E. coli (protein, UniProt P20294 1-200, looked up)
Ciliary neurotrophic factor: MAFAEQTPLTLHRRDLCSRSIWLARKIRSDLTALMESYVKHQGLNKNINLDSVDGVPVASTDRWSEMTEAERLQENLQAYRTFQGMLTKLLEDQRVHFTPTEGDFHQAIHTLMLQVSAFAYQLEELMVLLEQKIPENEADGMPATVGDGGLFEKKLWGLKVLQELSQWTVRSIHDLRVISSHQMGISALESHYGAKDKQM
amount of rCNTF at which maximal activity was seen ([4]; ciliary and dorsal root ganglion neuron cultures): less than 1 nanogram | survival and neurite outgrowth of E10 rat ciliary ganglion neurons ([4]; protein extract of E. coli W3110iqF-/rCNTF-C-1, after 24 and 48 hours in vitro): up to 50% | survival and neurite outgrowth of E8 dorsal root ganglion neurons [5]: approximately 30% | lowest concentration at which activity was detectable [6]: 2 pg/mL | motorneurons alive after 3 days in culture ([3]; recombinant rat CNTF, 5 ng/ml): about 70% | motorneurons alive after 6 days in culture ([3]; recombinant rat CNTF, 5 ng/ml): about 60%
